The results in this text go back to patent publication US20230372526A1, “PREPARATION METHOD FOR BIS-S[…] ANTIBODY-DRUG CONJUGATE” (MABWELL (SHANGHAI) BIOSCIENCE CO., LTD., priority 2020, published 2023).

*1 amine or outer side, *2 acyl side, *3 side chain or, on linkers, in order; H or OH if unused. Where a SMILES comes first, the peptide text is derived from it. [ ]: non-standard residue; d: D form. The star is where a group is joined. ξ: configuration not given here. Dil(5ξ) = CCC(C)[C@@H]([C@@H](CC(=O)[*:2])OC)N(C)[*:1]; Dolaproine = CO[C@@H]([C@@H]1CCCN1)[C@@H](C)C(=O)O; Hexanoyl(6-maleimido) = O=C1C=CC(=O)N1CCCCCC(=O)*; PABC = O=C(OCc1ccc(N[*:1])cc1)[*:2]; X1 = C[C@@H](N*)[C@@H](O)c1ccccc1; Cit = NC(=O)NCCC[C@H](N)C(=O)O; NMeV = CN[C@H](C(=O)O)C(C)C

The series in a line: Hydrolysis of Pertuzumab conjugated samples obtained using different small molecule compounds, hydrolysis percentage by Native MS. The settings on record: for hydrolysis of conjugated samples (in words) / 6 h hydrolysis percentage / 18 h hydrolysis percentage: 50 mM PB pH 7.8, 35° C.; for hydrolysis of conjugated samples (in words): summary of Table 3-2; for hydrolysis speed of conjugated samples (in words): hydrolysis systems A-D, pH 7.8, summary of Table 3-3. The class given is physicochemical. How it is done:
The analysis conditions were as follows: • Capillary activation: the capillary was rinsed with 0.1 mol/L sodium hydroxide for 10 min, 0.1 mol/L hydrochloric acid for 5 min and water for injection for 2 min respectively at 20 psi; and then rinsed with SDS-MW-Gel Buffer for 10 min at 70 psi; afterwards, pre-separation was performed for 10 min at 20 psi, at a column temperature of 25° C. and a voltage of −15 kv. The program was run: at 70 psi, the capillary was rinsed with 0.1 mol/L sodium hydroxide for 3 min, 0.1 mol/L hydrochloric acid for 1 min and water for injection for 1 min respectively; then the gel was poured for 10 min, the sample was loaded for 40 s at −5 kv, and the separation program was run ([…], 20 psi). The column temperature was set to 25° C., the voltage for separation was set to −15 kv, and the separation was performed for 40 min. • (4) Size exclusion chromatography (SEC-HPLC): • Sample treatment: the sample was diluted to 2.0-3.0 mg/ml with the mobile phase, and then was centrifuged at 12000 rpm for 10 min; and the supernatant was taken for analysis. • Chromatographic column: TOSOH, TSKgel G3000SWXL, 5 μm, 7.8 mm×300 mm; • Mobile phase: 100 mM PB+200 mM arginine hydrochloride, 5% isopropanol (pH 6.8); • Flow rate: 0.6 mL/min; • Detection wavelength: 280 nm; • Column temperature: 30° C.; • Loading volume: 10 uL; • Elution gradient: isocratic elution. • (5) Native MS: • Chromatographic column: ACQUITY UPLC Protein BEH SEC 200A (1.7 μm, 2.1 mm×150 mm); • Mobile phase: 50 mM ammonium acetate; • Running time: 12 min; • Flow rate: 0.065 mL/min; • Loading volume: 2 μL; • Column temperature: 30° C.; • Detection wavelength: 280 nm; • Capillary: 3.0 kV; • Cone voltage: 140 V; • Source offset: 80 V; • Source temperature: 125° C.; • Desolvation temperature: 250° C.; • Desolvation gas flow: 600 L/h. • (6) LC-MS:
Pertuzumab was reduced and conjugated as described in section a in Example 2. Conjugated samples obtained using different small molecule compounds were subjected to hydrolysis at 35° C. for a time period in the range of 3-18 hours, in 50 mM sodium dihydrogen phosphate-disodium hydrogen phosphate buffer, pH 7.8. The hydrolysis systems were sampled at different time points, and detected by Native MS.
Pertuzumab was reduced and conjugated as described in section a in Example 2. Conjugated samples obtained using different small molecule compounds were displaced to different hydrolysis solution systems (A: 50 mM sodium dihydrogen phosphate-disodium hydrogen phosphate buffer, pH 7.8; B: 50 mM sodium dihydrogen phosphate-disodium hydrogen phosphate buffer+3% arginine, pH 7.8; C: 50 mM potassium dihydrogen phosphate-dipotassium hydrogen phosphate buffer, pH 7.8; and D: 50 mM tromethamine-hydrochloric acid buffer, pH 7.8) for hydrolysis. Then the hydrolysis systems were sampled at different time points, and detected by Native MS.

Setting [1] is: Pertuzumab conjugate, Native MS.
The mark [2] stands for this setting: Pertuzumab conjugate, 50 mM sodium dihydrogen phosphate-disodium hydrogen phosphate buffer, pH 7.8, 35° C., Native MS.
Where [3] appears, read: hydrolysis system A: 50 mM sodium dihydrogen phosphate-disodium hydrogen phosphate buffer, pH 7.8.
The mark [4] stands for this setting: hydrolysis system B: 50 mM sodium phosphate buffer+3% arginine, pH 7.8.
The mark [5] stands for this setting: hydrolysis system C: 50 mM potassium dihydrogen phosphate-dipotassium hydrogen phosphate buffer, pH 7.8.
The mark [6] stands for this setting: hydrolysis system D: 50 mM tromethamine-hydrochloric acid buffer, pH 7.8.

On to `CCC(C)[C@@H]([C@@H](CC(=O)N1CCC[C@H]1[C@H](OC)[C@@H](C)C(=O)N[C@H](C)[C@@H](O)c1ccccc1)OC)N(C)C(=O)[C@@H](NC(=O)[C@H](C(C)C)N(C)C(=O)OCc1ccc(NC(=O)[C@H](CCCNC(N)=O)NC(=O)[C@@H](NC(=O)COCCOCCOCCOc2ccc(N3C(=O)C(Sc4ccc(C(=O)NC)cc4)=C(Sc4ccc(C(=O)NC)cc4)C3=O)cc2C(F)(F)F)C(C)C)cc1)C(C)C` (stereo partly shown) [B-6], for which the “hydrolysis of conjugated samples (in words)” value was “relatively low percentage of hydrolysis”. Under setting [1], the “6 h hydrolysis percentage” value came to 33.32% and the “18 h hydrolysis percentage” value is listed as 47.60%. For the same molecule, the “3 h hydrolysis percentage” value under setting [2] is 22.86%.

Take `CCC(C)[C@@H]([C@@H](CC(=O)N1CCC[C@H]1[C@H](OC)[C@@H](C)C(=O)N[C@H](C)[C@@H](O)c1ccccc1)OC)N(C)C(=O)[C@@H](NC(=O)[C@H](C(C)C)N(C)C(=O)OCc1ccc(NC(=O)[C@H](CCCNC(N)=O)NC(=O)[C@@H](NC(=O)COCCOCCOCCOc2c(F)cc(N3C(=O)C(Sc4ccccc4)=C(Sc4ccccc4)C3=O)cc2F)C(C)C)cc1)C(C)C` (stereo partly shown) [A-3]: the “hydrolysis speed of conjugated samples (in words)” value (“hydrolysis speed” below) was “hydrolyzed rapidly in all above buffers”. Under setting [3], the “1 h hydrolysis percentage” value was determined as 89.31% and the “3 h hydrolysis percentage” value was determined as 99.32%. Further, under setting [4], the “1 h hydrolysis percentage” value was 93.48% and the “3 h hydrolysis percentage” value was found to be 99.41%. Besides, under setting [5], the “1 h hydrolysis percentage” value came out at 92.52% and the “3 h hydrolysis percentage” value is listed as 99.70%. In addition, under setting [6], the “1 h hydrolysis percentage” value came out at 90.33% and the “3 h hydrolysis percentage” value was 99.31%.

For `CCC(C)[C@@H]([C@@H](CC(=O)N1CCC[C@H]1[C@H](OC)[C@@H](C)C(=O)N[C@H](C)[C@@H](O)c1ccccc1)OC)N(C)C(=O)[C@@H](NC(=O)[C@H](C(C)C)N(C)C(=O)OCc1ccc(NC(=O)[C@H](CCCNC(N)=O)NC(=O)[C@@H](NC(=O)CCCCCN2C(=O)C=CC2=O)C(C)C)cc1)C(C)C` (stereo partly drawn) [D-1] ({Hexanoyl(6-maleimido)}-V[Cit][PABC][NMeV]V[Dil(5ξ)][Dolaproine]-X1), under setting [1], the “6 h hydrolysis percentage” value was found to be 7.67% and the “18 h hydrolysis percentage” value worked out at 21.44%. Under setting [2], the “3 h hydrolysis percentage” value worked out at 4.74%.

In the case of `CCC(C)[C@@H]([C@@H](CC(=O)N1CCC[C@H]1[C@H](OC)[C@@H](C)C(=O)N[C@H](C)[C@@H](O)c1ccccc1)OC)N(C)C(=O)[C@@H](NC(=O)[C@H](C(C)C)N(C)C(=O)OCc1ccc(NC(=O)[C@H](CCCNC(N)=O)NC(=O)[C@@H](NC(=O)COCCOCCOCCOc2ccc(N3C(=O)C(Sc4ccc(C(=O)N5CCOCC5)cc4)=C(Sc4ccc(C(=O)N5CCOCC5)cc4)C3=O)cc2)C(C)C)cc1)C(C)C` (stereo partly shown) [C-1], the “hydrolysis of conjugated samples (in words)” value is on record as “hydrolyzed all most completely within 3 hours or 6 hours” and the “hydrolysis speed” value is given as “hydrolyzed rapidly in all above buffers”. Also, under setting [1], the “6 h hydrolysis percentage” value turned out to be 98.25%. Also, the “3 h hydrolysis percentage” value under setting [2] is 79.08%. Under setting [3], the “1 h hydrolysis percentage” value was determined as 85.31% and the “3 h hydrolysis percentage” value came to 99.56%. Under setting [4], the “1 h hydrolysis percentage” value was determined as 94.52% and the “3 h hydrolysis percentage” value is 99.87%. Also, under setting [5], the “1 h hydrolysis percentage” value amounted to 87.52% and the “3 h hydrolysis percentage” value amounted to 99.70%. In addition, under setting [6], the “1 h hydrolysis percentage” value stood at 84.78% and the “3 h hydrolysis percentage” value amounted to 99.79%.

In the case of `CCC(C)[C@@H]([C@@H](CC(=O)N1CCC[C@H]1[C@H](OC)[C@@H](C)C(=O)N[C@H](C)[C@@H](O)c1ccccc1)OC)N(C)C(=O)[C@@H](NC(=O)[C@H](C(C)C)N(C)C(=O)OCc1ccc(NC(=O)[C@H](CCCNC(N)=O)NC(=O)[C@@H](NC(=O)COCCOCCOCCOc2ccc(N3C(=O)C(Sc4ccccc4)=C(Sc4ccccc4)C3=O)c(C(F)(F)F)c2)C(C)C)cc1)C(C)C` (stereo partly shown) [A-4], the “hydrolysis of conjugated samples (in words)” value was “relatively low percentage of hydrolysis” and the “hydrolysis speed” value is listed as “required more time for being hydrolyzed”. Further, under setting [1], the “6 h hydrolysis percentage” value was determined as 38.49% and the “18 h hydrolysis percentage” value was determined as 53.46%. The “3 h hydrolysis percentage” value under setting [2] is reported as 25.99%. Under setting [3], the “1 h hydrolysis percentage” value worked out at 15.65% and the “3 h hydrolysis percentage” value is on record as 25.99%. Besides, under setting [4], the “1 h hydrolysis percentage” value was 18.17% and the “3 h hydrolysis percentage” value is on record as 35.23%. Under setting [5], the “1 h hydrolysis percentage” value was 14.98% and the “3 h hydrolysis percentage” value worked out at 26.13%. Also, under setting [6], the “1 h hydrolysis percentage” value stood at 14.56% and the “3 h hydrolysis percentage” value was found to be 25.32%.

For `CCC(C)[C@@H]([C@@H](CC(=O)N1CCC[C@H]1[C@H](OC)[C@@H](C)C(=O)N[C@H](C)[C@@H](O)c1ccccc1)OC)N(C)C(=O)[C@@H](NC(=O)[C@H](C(C)C)N(C)C(=O)OCc1ccc(NC(=O)[C@H](CCCNC(N)=O)NC(=O)[C@@H](NC(=O)COCCOCCOCCOc2ccc(N3C(=O)C(Sc4ccc(C(=O)NC)cc4)=C(Sc4ccc(C(=O)NC)cc4)C3=O)cc2OC)C(C)C)cc1)C(C)C` (stereo partly shown) [B-7], the “hydrolysis of conjugated samples (in words)” value is on record as “relatively low percentage of hydrolysis” and the “hydrolysis speed” value is given as “required more time for being hydrolyzed”. Also, under setting [1], the “6 h hydrolysis percentage” value was found to be 54.71% and the “18 h hydrolysis percentage” value is given as 76.15%. The “3 h hydrolysis percentage” value under setting [2] is given as 34.10%. Further, under setting [3], the “1 h hydrolysis percentage” value was 15.83% and the “3 h hydrolysis percentage” value was found to be 34.10%. Under setting [4], the “1 h hydrolysis percentage” value stood at 26.12% and the “3 h hydrolysis percentage” value is 51.25%. Under setting [5], the “1 h hydrolysis percentage” value is on record as 15.12% and the “3 h hydrolysis percentage” value turned out to be 35.12%. Under setting [6], the “1 h hydrolysis percentage” value came out at 16.62% and the “3 h hydrolysis percentage” value worked out at 36.43%.

Consider `CCC(C)[C@@H]([C@@H](CC(=O)N1CCC[C@H]1[C@H](OC)[C@@H](C)C(=O)N[C@H](C)[C@@H](O)c1ccccc1)OC)N(C)C(=O)[C@@H](NC(=O)[C@H](C(C)C)N(C)C(=O)OCc1ccc(NC(=O)[C@H](CCCNC(N)=O)NC(=O)[C@@H](NC(=O)COCCOCCOCCOc2ccc(N3C(=O)C(Sc4ccccc4)=C(Sc4ccccc4)C3=O)cn2)C(C)C)cc1)C(C)C` (stereo partly shown) [A-5], for which, under setting [1], the “6 h hydrolysis percentage” value is 16.76% and the “18 h hydrolysis percentage” value was 28.81%. Also, the “3 h hydrolysis percentage” value under setting [2] was 7.29%.

`CCC(C)[C@@H]([C@@H](CC(=O)N1CCC[C@H]1[C@H](OC)[C@@H](C)C(=O)N[C@H](C)[C@@H](O)c1ccccc1)OC)N(C)C(=O)[C@@H](NC(=O)[C@H](C(C)C)N(C)C(=O)OCc1ccc(NC(=O)[C@H](CCCNC(N)=O)NC(=O)[C@@H](NC(=O)COCCOCCOCCOc2c(OC)cc(N3C(=O)C(Sc4ccccc4)=C(Sc4ccccc4)C3=O)cc2OC)C(C)C)cc1)C(C)C` (stereo partly shown) [A-2]: the “hydrolysis of conjugated samples (in words)” value is reported as “relatively low percentage of hydrolysis”. Further, under setting [1], the “6 h hydrolysis percentage” value came to 30.33% and the “18 h hydrolysis percentage” value came out at 48.43%. The “3 h hydrolysis percentage” value under setting [2] amounted to 17.85%.
